T1: peptide from the N-terminal coiled-coil region of human ANGPTL4 (hANGPTL4 peptide, SEQ ID NO: 339) (human)
T1 peptide: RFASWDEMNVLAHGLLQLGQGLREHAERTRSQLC

T2: peptide from the N-terminal coiled-coil region of human ANGPTL3 (hANGPTL3 peptide, SEQ ID NO: 338) (human)
T2 construct: also called hANGPTL3 shift peptide
T2 peptide: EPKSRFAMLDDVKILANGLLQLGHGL

T3: human ANGPTL8 peptide (hANGPTL8 peptide, SEQ ID NO: 337) (human)
T3 construct: also called N-terminal region ANGPTL8 peptide
T3 peptide: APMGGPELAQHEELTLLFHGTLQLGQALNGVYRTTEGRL

T4: monkey ANGPTL8 expressed with C-terminal mouse IgG2a Fc tag (MfANGPTL8-mFc; SEQ ID NO: 341) (cynomolgus monkey)
T4 construct: also called cynomolgus monkey ANGPTL8
T4 chain: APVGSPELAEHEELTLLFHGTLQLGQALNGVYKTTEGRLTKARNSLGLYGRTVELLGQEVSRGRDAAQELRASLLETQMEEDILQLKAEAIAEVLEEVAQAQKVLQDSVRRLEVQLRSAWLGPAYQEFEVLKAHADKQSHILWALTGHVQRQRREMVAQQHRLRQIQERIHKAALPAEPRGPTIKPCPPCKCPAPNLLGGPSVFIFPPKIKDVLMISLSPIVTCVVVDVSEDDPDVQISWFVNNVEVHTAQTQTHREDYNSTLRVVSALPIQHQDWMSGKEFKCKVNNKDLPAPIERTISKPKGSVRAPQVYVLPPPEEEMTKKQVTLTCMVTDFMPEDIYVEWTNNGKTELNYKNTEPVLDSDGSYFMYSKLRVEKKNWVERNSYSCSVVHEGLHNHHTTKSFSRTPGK

T5: human ANGPTL8 expressed with C-terminal mouse IgG2a Fc tag (hANGPTL8-mFc; SEQ ID NO: 340) (human)
T5 construct: also called Angiopoietin-like protein 8
T5 chain: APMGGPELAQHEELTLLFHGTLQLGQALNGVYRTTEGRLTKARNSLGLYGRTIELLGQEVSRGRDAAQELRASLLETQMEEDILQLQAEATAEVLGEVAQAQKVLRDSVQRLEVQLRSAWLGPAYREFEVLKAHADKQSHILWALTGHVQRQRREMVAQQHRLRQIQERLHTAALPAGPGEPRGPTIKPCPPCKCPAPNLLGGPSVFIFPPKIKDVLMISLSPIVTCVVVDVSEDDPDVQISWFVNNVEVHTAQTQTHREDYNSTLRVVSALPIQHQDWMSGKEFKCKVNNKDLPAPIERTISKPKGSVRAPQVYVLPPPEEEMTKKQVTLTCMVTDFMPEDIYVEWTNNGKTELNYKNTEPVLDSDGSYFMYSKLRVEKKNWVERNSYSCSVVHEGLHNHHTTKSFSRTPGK


Legend:
[1] = target: T1, peptide from the N-terminal coiled-coil …; assay: SPR, captured mAb, 500 nM peptide, 25C
Protocol: (§1) The assay utilized a format where ANGPTL8 antibodies were captured on the sensor surface and peptides were injected over the antibody surface. Peptides from the N-terminal coiled-coil region of human ANGPTL3 (hANGPTL3 peptide, SEQ ID NO: 338) and human ANGPTL4 (hANGPTL4 peptide, SEQ ID NO: 339) were also included as controls. Also included was a control antibody (H4H268P from US2011/0159015A1) that binds to the ANGPTL4 peptide and a negative isotype control antibody. All binding studies were performed in 10 mM HEPES pH 7.4, 150 mM NaCl, 3 mM EDTA, and 0.05% v/v Surfactant Tween-20 (HBS-ET running buffer) at 25° C. The HCA sensor surface was derivatized via amine coupling to a monoclonal mouse anti-human Fc antibody (GE, # BR-1008-39), and to this surface was captured approximately 1000 RU of each ANGPTL8 antibody or control antibody. Peptide stock solutions were diluted in HBS-ET running buffer to 500 nM and injected over the antibody-captured surfaces for 4 minutes at a flow rate of 30 μL/minute followed by the dissociation of bound peptide in HBS-ET running buffer for 10 minutes.
(§2) Dissociative half-lives (t½) were calculated from kd as: […]

[2] = target: T2, peptide from the N-terminal coiled-coil …; assay: SPR, captured mAb, 500 nM peptide, 25C
Protocol: as §1, §2

[3] = target: T3, human ANGPTL8 peptide (hANGPTL8 …); assay: SPR, captured mAb, 500 nM peptide, 25C
Protocol: as §1, §2

[4] = target: T4, monkey ANGPTL8 expressed with …; assay: BLI Octet, captured antigen, 100 nM mAb, 25C
Protocol: (§3) Binding of ANGPTL8 antibodies to human and monkey ANGPTL8 proteins was investigated using Bio-layer Interferometry with an Octet HTX biosensor platform (ForteBio, A Division of Pall Life Sciences). All experiments were performed at 25° C. in 10 mM HEPES pH 7.4, 150 mM NaCl, 0.05% v/v Surfactant Tween-20, and 1 mg/ml BSA with the reaction multiwell plate agitated at 1000 rpm. Approximately 1.6 nm of human ANGPTL8 produced with a C-terminal mouse IgG2a Fc tag (hANGPTL8-mFc; SEQ ID NO: 340) or cynomolgus monkey ANGPTL8 produced with a C-terminal mouse IgG2a Fc tag (MfANGPTL8-mFc; SEQ ID NO: 341) was captured onto anti-mFc (AMC) Octet biosensors by submerging the sensors into wells containing 10 μg/mL of each protein for 4 minutes. Under the same conditions a negative control protein with the same mFc tag (hLDLR-mFc) was also coupled to the AMC sensor. All four sensors, […] and one blank, were then submerged into wells containing 100 nM of different ANGPTL8 monoclonal antibodies or an isotype control for 4 minutes.

[5] = target: T5, human ANGPTL8 expressed with C-terminal …; assay: BLI Octet, captured antigen, 100 nM mAb, 25C
Protocol: as §3

[6] = target: T6, anti-mFc (AMC) Octet biosensor, blank; assay: BLI Octet, blank AMC sensor, 100 nM mAb, 25C
T6 construct: Sensor without captured protein, used as blank; also called Blank AMC Sensor
Protocol: as §3

500 nM hAngPTL4 peptide Bound (RU) [1] [RU]	500 nM hANGPTL3 peptide Bound (RU) [2] [RU]	500 nM hANGPTL8 peptide Bound (RU) [3] [RU]	mAb Binding Response (nm) [4] [nm]	mAb Binding Response (nm) [5] [nm]	mAb Binding Response (nm) [6] [nm]	Binder	binding result [1]	binding result [2]	binding result [3]
0	0	4	0.21	0.2	0.02	H4H15361P2 (antibody, human IgG4, V domains shown, H4H prefix: human IgG4 Fc) VH: EVQLVESGGGLVQPGRSLRLSCTASGFSFGDNAMGWVRQAPGKGLEWVSFIRRKASGGTTEYAASVKGRFTISRDDSKSIAYLQMNSLKTEDTGVYYCTRGGAVYGYWGQGTLVTVSS VL: not shown	no binding (tested: <9 RU at 500 nM peptide)	no binding (tested: <9 RU at 500 nM peptide)	no binding (tested: <9 RU at 500 nM peptide)
0	0	0	0.26	0.25	0.02	H4H15363P2 (antibody, human IgG4, V domains shown, H4H prefix: human IgG4 Fc) VH: EVQLVESGGGLVQPGGSLRLSCAASGFTFSNYAMSWVRQVPGKGLEWVSTISGSGGSTYYADSVKGRFTISRDNSKNSLYLQMNSLRAEDTAVYYCAKLVRGVIGWFDPWGQGTLVTVSS VL: not shown	no binding (tested: <9 RU at 500 nM peptide)	no binding (tested: <9 RU at 500 nM peptide)	no binding (tested: <9 RU at 500 nM peptide)
0	0	0	0.13	0.15	0.03	H4H15355P2 (antibody, human IgG4, V domains shown, H4H prefix: human IgG4 Fc) VH: QVQLVESGGGVVQPGRSLRLSCAASGFTFTNYAMHWVRQAPGKGLEWVAVISYDGSHTYFADSVKGRFTMSRDNSKNTISLQMNSLRPEDTAVYFCAGGGATTWFYFYGLDVWGQGTTVTVSS VL: not shown	no binding (tested: <9 RU at 500 nM peptide)	no binding (tested: <9 RU at 500 nM peptide)	no binding (tested: <9 RU at 500 nM peptide)
0	0	0	0.08	0.13	0.02	H4H15357P2 (antibody, human IgG4, V domains shown, H4H prefix: human IgG4 Fc) VH: EVQLVESGGGLVKPGGSLRLSCTASGFTFGNAWMSWVRQAPGKGLEWVGLIKGKTDGGTTNYAAPVKGRFTISRDDSKNTLYLHLNSLRTEDTALYYCTTDQVELRQYYYYGLDVWGQGTTVTVSS VL: not shown	no binding (tested: <9 RU at 500 nM peptide)	no binding (tested: <9 RU at 500 nM peptide)	no binding (tested: <9 RU at 500 nM peptide)

The remaining lines, values behind:

Binder	500 nM hAngPTL4 peptide Bound (RU) [1] [RU]	500 nM hANGPTL3 peptide Bound (RU) [2] [RU]	500 nM hANGPTL8 peptide Bound (RU) [3] [RU]	mAb Binding Response (nm) [4] [nm]	mAb Binding Response (nm) [5] [nm]	mAb Binding Response (nm) [6] [nm]	binding result [1]	binding result [2]	binding result [3]
H4H15347P (antibody, human IgG4, V domains shown, H4H prefix: human IgG4 Fc) VH: EVQLVESGGGLVQPGGSLRLSCAASGFTFRNYAMNWARQAPGKGLEWVSGITGSGGATYYADSVKGRFTISRENSKNTLFLQMDTLRAEDTAVYYCAKDRRYFPTSGGPQWGQGTLVTVSS VL: DIVMTQSPLSLPVTPGEPASISCRSSRSLLHSSGYNYLDWYLQKPGQSPQLLLYLGSNRASGVPDRFSGSGSGTYFTLKISRVDAEDVGVYYCMQALQTPWTFGQGTKVEIK	0	-1	0	0.29	0.25	0.03	no binding (tested: <9 RU at 500 nM peptide)		no binding (tested: <9 RU at 500 nM peptide)
H4H15335P (antibody, human IgG4, V domains shown, H4H prefix: human IgG4 Fc) VH: QVQLVESGGGVVQPGRSLRLSCAASGFTFNNYGIHWVRQAPGKGLEWVAVISYDESNKYYADSVKGRFTISRDNSKNTLYLQMNSLRAEDTAVYYCAKDIRIAARRHYYYYGMDVWGQGTTVTVSS VL: DIQMTQSPSSVSASVGDRVTITCRASQGISRWLAWYQQKPGKAPKLLIYAASSLESGVPARFSGSGSGTDFTLTISSLQPEDFATYYCQQANSFPITFGPGTKVDIK	1	-1	0	0.04	0.06	0.01	no binding (tested: <9 RU at 500 nM peptide)		no binding (tested: <9 RU at 500 nM peptide)
H4H15354P2 (antibody, human IgG4, V domains shown, H4H prefix: human IgG4 Fc) VH: QVQLVESGGGVVQPGRSLRLSCTASGFTFNNYGIHWVRQAPGKGLEWVAVISYDGSNKFYAESVRGRFTISRDNSRNTLFLQMISLRGEDSAVYYCAKDRPYYDILTAHYPSDYYFYAMDVWGHGTTVTVSS VL: not shown	0	0	0	0.03	0.05	0.02	no binding (tested: <9 RU at 500 nM peptide)	no binding (tested: <9 RU at 500 nM peptide)	no binding (tested: <9 RU at 500 nM peptide)
H4H15314P2 (antibody, human IgG4, V domains shown, H4H prefix: human IgG4 Fc) VH: QVQLVQSGAEVKKPGASVKVSCKASGYTFTSYDINWVRQATGQGLEWMGWMNPNGDNTGYAQKFQGRVTMTGDTSISTAYMELSSLRSEDTAVYYCAREGIWGFDPWGQGTLVTVSS VL: DIQMTQSPSSLSASVGDRVTITCRASQDIRNDLGWYQQKPGKAPKRLIYAASSLQSGVPSRFSGSGSGTEFTLTISSLQPEDFATFYCLQHNTFPRTFGQGTKVEIK	1	0	0	0.01	0.04	0	no binding (tested: <9 RU at 500 nM peptide)	no binding (tested: <9 RU at 500 nM peptide)	no binding (tested: <9 RU at 500 nM peptide)

Source: patent US20170037124A1 (Regeneron, published 2017)
